Patent publication US20120276102A1 (Pfizer, published 2012)

How the values were obtained:
murine IL-21 = murine IL-21 (murine, UniProt Q9ES17 18-146); assay: cell-based or functional assay
[1] = biological target: T1, human complement component C1q (human, UniProt P02745 23-245; P02746 28-253; P02747 29-245); assay: C1q ELISA, antibody coated at 5 µg/ml, human serum 1:50
T1 construct: Native C1q in diluted human serum
Protocol: In order to determine whether cell-surface binding by anti-IL-21R antibodies is likely to lead to complement-dependent cytotoxicity (CDC), the antibodies were tested for their ability to bind to the complement component C1q in an ELISA. […] Diluted antibodies (100 μl) were coated onto a COSTAR® high-binding ELISA plate (Corning Life Sciences, Lowell, Mass.) overnight at 4° C. Plates were washed 3× with PBS/Tween-20 and blocked with 200 μl of blocking buffer (0.1 M NaPO₄, 0.1 M NaCl, 0.1% gelatin, 0.01% Tween) for 1 hr at RT. Human serum previously determined to contain C1q (Quidel, San Diego, Calif.) was diluted 1:50 in PBS. After 1 hr of blocking, plates were washed and 100 μl of diluted serum was added to each well and incubated for 2 hr at RT on a shaker. Following three washes, 100 μl A of 0.1 μg/ml chicken polyclonal anti-human C1q antibody (AbCam, Cambridge, Mass.) was added to each well and incubated for 1 hr at RT. Plates were again washed and incubated with 100 μA of a rabbit polyclonal antibody to chicken Ig-Y—HRP diluted 1:4000 (AbCam) for 1 hr at RT. Plates were washed and developed with TMB for 5 min, followed by 50 μA of 1 M H₂SO₄ to stop the reaction, and then read at 450 nm.

[2] = biological target: T2, murine IL-21R extracellular domain His-Flag fusion protein (murine, UniProt Q9JHX3 20-237); assay: competition ELISA: scFv mixed with biotinylated murine IL-21R-H/F, added to plate-bound 18A5 IgG (competitor); captured receptor detected with HRP-streptavidin, A450
T2 construct: Biotinylated in the ELISAs; also called mIL-21R-H/F; murine IL-21R-H/F
Protocol: Blocked plates were washed 3× with PBS, and 50 μl/well of scFv/IL-21R mixtures were transferred to the appropriate plates and incubated for 1 hr at RT. Plates were washed 5× with PBS prior to the addition of a 1:6000 dilution of horseradish peroxidase-conjugated streptavidin (Southern Biotech, Birmingham, Ala.) secondary antibody to detect bound biotinylated mIL-21R-H/F. Plates were then incubated for 1 hr at RT and washed 7× with PBS. Signal was developed using 3,3′,5,5′-tetramethylbenzidine (TMB), the reaction stopped with H₂SO₄, and the absorbance read at 450 nm on an ENVISION™ plate reader (Perkin Elmer).

[3] = biological target: T3, rat IL-21R expressed on cells (rat); assay: cell-based ELISA on CHO cells transiently expressing rat IL-21R; HRP anti-human IgG, A450
T3 construct: whole, on cells
Protocol: (§1) FIG. 6(a-l) depicts the binding of 21 anti-IL-21R IgGs to CHO cells transiently expressing human IL-21R (FIGS. 6a-c), rat IL-21R (FIGS. 6d-f), cynomolgus monkey IL-21R (FIGS. 6g-i), and human gamma common chain (FIGS. 6j-1). CHO cells were transiently transfected with IL-21R or the control gamma common chain, and binding was detected with HRP-conjugated anti-human IgG in a cell-based ELISA.
(§2) A subset of binding proteins was tested for binding to rat, cynomolgus monkey, human IL-21R, or human IL-2R-γ common subunit expressed transiently on the surfaces of CHO-PA-Dukx cells. Cells were transfected 48 hr prior to the assay. On the day of the assay, cells were washed gently 5× in PBS containing 0.9 mM CaCl₂ and 0.45 mM MgCl₂ (PBS/CaMg) on an automated plate washer (Titertek, Huntsville, Ala.), and blocked for 1 hr at RT in PBS/CaMg/5% nonfat dry milk. Conditioned media from transiently expressed anti-IL-21R IgGs were serially diluted in blocking buffer and added to the cells in the blocked plates for 1 hr at RT. Cells were washed 5× with PBS/CaMg and then incubated with horseradish peroxidase-conjugated anti-human IgG for 1 hr at RT. Cells were then washed 10× in PBS/CaMg and all of the wash buffer was removed. Cells were incubated with 100 μl TMB until the color reaction reached saturation, stopped with 100 μl of 0.18 M H₂SO₄, and read at A450 on a Perkin Elmer ENVISION™ plate reader.

[4] = biological target: T4, human IL-21R expressed on cells (human, UniProt Q9HBE5 20-538); assay: cell-based ELISA on CHO cells transiently expressing human IL-21R; HRP anti-human IgG, A450
T4 construct: also called human IL-21R-BaF3; human IL-21R-TF1
Protocol: as §1, §2

[5] = biological target: T5, human gamma (γ) common chain expressed on CHO cells (human, UniProt P31785 23-369); assay: cell-based ELISA on CHO cells transiently expressing human gamma common chain; HRP anti-human IgG, A450
T5 construct: whole, on cells; Control protein; also called human IL-2R-γ common subunit; human γ-common
T5 sequence (looked up): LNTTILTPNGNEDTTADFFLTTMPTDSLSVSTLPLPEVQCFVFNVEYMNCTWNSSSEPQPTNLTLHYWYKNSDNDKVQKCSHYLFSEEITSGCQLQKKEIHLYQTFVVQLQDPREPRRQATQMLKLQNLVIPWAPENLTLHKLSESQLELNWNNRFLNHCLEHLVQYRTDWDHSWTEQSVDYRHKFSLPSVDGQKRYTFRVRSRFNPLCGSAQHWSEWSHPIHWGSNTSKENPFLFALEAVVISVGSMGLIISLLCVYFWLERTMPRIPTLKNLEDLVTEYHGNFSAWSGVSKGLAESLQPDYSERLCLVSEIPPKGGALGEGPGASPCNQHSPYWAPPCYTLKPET
Protocol: as §1, §2

[6] = biological target: T4, human IL-21R expressed on cells; assay: cell-based or functional assay
[7] = biological target: murine IL-21R expressed on cells (murine, UniProt Q9JHX3 20-529); assay: cell-based or functional assay
[8] = biological target: T6, cynomolgus monkey IL-21R expressed on cells (cynomolgus monkey, UniProt G7Q0S8 41-559); assay: cell-based ELISA on CHO cells transiently expressing cynomolgus monkey IL-21R; HRP anti-human IgG, A450
T6 construct: whole, on cells
Protocol: as §1, §2

human IL-2Rβ = biological target: T7, human IL-2Rβ (human, UniProt P14784 27-239); assay: SPR, Ab captured
T7 sequence (looked up): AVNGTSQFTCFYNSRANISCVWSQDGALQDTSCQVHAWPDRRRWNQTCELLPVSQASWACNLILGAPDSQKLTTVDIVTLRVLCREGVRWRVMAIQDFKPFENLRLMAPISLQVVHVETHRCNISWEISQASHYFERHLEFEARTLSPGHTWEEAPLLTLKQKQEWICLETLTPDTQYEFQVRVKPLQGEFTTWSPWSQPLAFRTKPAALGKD
Protocol: (§3) The specificity of binding of a subset of transiently expressed anti-IL-21R binding proteins (here antibodies) was tested on a BIACORE™ 2000 surface plasmon resonance instrument. Anti-human-IgG, anti-murine immunoglobulin antibodies, and murine IL-21R-H/F were immobilized onto a research-grade carboxymethyl-dextran chip (CM5) using standard amine coupling. The sensor chip surface was activated with EDC/NHS for 7 min at a flow rate of 20 μl/min. The first flow cell was used as reference surface to correct for bulk refractive index, matrix effects, and nonspecific binding. […] Remaining activated groups were blocked with 1.0 M ethanolamine (pH 8.0). The molecular weights of the anti-human IgG and the anti-murine IgG were both 150 kD, and the molecular weight of the IL-21R monomer was 27 kD.
(§4) Conditioned media containing anti-IL-21R antibodies and antibody controls (murine anti-human IL-2Rβ and murine anti-human IL-4R(R&D Systems, Minneapolis, Minn.); human anti-human IL-13 (Wyeth, Cambridge, Mass.)) were diluted in HBS/EP buffer supplemented with 0.2% bovine serum and injected onto all four flow cells of the BIACORE™ chip, capturing 500-700 (RU) of antibody on the species-appropriate capture antibody. Following a 5 sec washing period, 50 nM solutions of a positive control protein (murine IL-21R-H/F), two human proteins related to IL-21R (human IL-2Rβ and human sIL-4R(R&D Systems)), or an unrelated His/FLAG-tagged protein (human IL-13-H/F) were injected over the captured antibodies on the chip. The association and dissociation phases were monitored for 120 and 180 sec, respectively, followed by two 5 μl injections of glycine (pH 1.5) to regenerate a fully active capturing surface. All binding experiments were done at 25° C. in HBS/EP buffer. Blank and buffer effects were subtracted for each sensorgram using double referencing.

human soluble IL-4R = biological target: T8, human soluble IL-4R (human, UniProt P24394 26-232, limits assumed); assay: SPR, Ab captured
T8 construct: also called human sIL-4R
Protocol: as §3, §4

human IL-13-His/FLAG = biological target: T9, human IL-13-His/FLAG (human, UniProt P35225 35-146, limits assumed); assay: SPR, Ab captured
T9 construct: Unrelated His/FLAG-tagged control; also called human IL-13-H/F
Protocol: as §3, §4

[9] = biological target: T6, cynomolgus monkey IL-21R expressed on …; assay: cell ELISA, CHO cells
Protocol: as §2

[10] = biological target: T5, human gamma (γ) common chain expressed …; assay: cell ELISA, CHO cells
Protocol: as §2

[11] = biological target: T4, human IL-21R expressed on cells; assay: cell ELISA, CHO cells
Protocol: as §2

[12] = biological target: T3, rat IL-21R expressed on cells; assay: cell ELISA, CHO cells
Protocol: as §2

[13] = biological target: T3, rat IL-21R expressed on cells; assay: cell-based or functional assay

T4 sequence (Q9HBE5 20-538 limits assumed): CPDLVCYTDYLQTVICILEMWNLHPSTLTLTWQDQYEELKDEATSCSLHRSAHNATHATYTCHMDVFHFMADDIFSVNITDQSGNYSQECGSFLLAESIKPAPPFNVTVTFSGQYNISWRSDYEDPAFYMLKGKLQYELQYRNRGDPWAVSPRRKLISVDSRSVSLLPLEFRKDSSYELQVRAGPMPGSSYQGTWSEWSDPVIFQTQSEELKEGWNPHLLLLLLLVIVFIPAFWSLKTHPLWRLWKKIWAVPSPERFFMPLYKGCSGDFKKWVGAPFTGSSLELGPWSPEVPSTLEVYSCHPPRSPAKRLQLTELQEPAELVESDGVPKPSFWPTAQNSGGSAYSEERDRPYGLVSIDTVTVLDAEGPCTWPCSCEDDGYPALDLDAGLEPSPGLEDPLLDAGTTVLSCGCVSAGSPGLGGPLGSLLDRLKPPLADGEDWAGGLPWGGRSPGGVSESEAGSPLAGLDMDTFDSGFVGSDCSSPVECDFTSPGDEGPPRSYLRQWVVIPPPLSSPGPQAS
T1 sequence (P02745 23-245, chain 1 of 3): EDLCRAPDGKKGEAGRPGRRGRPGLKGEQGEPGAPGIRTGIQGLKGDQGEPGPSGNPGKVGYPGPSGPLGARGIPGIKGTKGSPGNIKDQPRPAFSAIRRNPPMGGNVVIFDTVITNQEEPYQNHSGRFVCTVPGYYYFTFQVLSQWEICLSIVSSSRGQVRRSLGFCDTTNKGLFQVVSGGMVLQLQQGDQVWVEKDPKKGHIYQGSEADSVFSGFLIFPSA
T1 sequence (P02746 28-253, chain 2 of 3): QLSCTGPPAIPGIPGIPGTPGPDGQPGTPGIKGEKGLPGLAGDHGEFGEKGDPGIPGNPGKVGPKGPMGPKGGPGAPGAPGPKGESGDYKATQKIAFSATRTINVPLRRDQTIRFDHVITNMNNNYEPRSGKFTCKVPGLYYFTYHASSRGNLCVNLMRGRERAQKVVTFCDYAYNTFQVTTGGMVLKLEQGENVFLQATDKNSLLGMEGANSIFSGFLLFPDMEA
T1 sequence (P02747 29-245, chain 3 of 3): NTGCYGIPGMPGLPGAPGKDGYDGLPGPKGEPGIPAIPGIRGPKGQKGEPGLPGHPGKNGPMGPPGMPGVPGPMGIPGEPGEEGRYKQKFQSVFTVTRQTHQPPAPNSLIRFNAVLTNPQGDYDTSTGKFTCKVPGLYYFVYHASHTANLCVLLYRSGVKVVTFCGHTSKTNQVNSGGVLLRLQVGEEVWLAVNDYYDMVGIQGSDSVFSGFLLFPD
T9 sequence (P35225 35-146 limits assumed): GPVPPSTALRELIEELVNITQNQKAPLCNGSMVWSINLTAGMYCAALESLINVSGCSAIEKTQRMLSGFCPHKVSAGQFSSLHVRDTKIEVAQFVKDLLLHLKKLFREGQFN

B1: murine IL-21R-Fc (Fc fusion, not shown: a dimerising Fc or GST)
chain: not shown
Murine IL-21R-BaF3 Neutralization IC50 (murine IL-21): 0.04 nM

B2: AbX (antibody, human IgG1)
VH: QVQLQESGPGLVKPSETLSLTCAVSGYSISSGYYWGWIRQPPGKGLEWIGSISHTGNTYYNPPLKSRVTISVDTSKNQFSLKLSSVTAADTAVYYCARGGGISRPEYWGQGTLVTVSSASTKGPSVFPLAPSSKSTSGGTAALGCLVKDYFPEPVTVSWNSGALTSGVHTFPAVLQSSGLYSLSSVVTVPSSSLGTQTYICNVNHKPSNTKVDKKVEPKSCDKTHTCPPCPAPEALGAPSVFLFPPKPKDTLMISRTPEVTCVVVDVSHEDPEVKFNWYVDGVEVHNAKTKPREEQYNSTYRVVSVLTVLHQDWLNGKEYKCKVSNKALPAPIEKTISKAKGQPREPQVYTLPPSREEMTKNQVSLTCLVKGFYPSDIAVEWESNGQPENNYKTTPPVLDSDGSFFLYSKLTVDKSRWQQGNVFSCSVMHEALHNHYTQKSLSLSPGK
VL: SSELTQDPAVSVALGQTVRITCQGDSLRTYYASWYQQKPGQAPVLVIYGKHKRPSGIPDRFSGSSSGNTASLTITGAQAEDEADYYCVARSNKGNPHVLFGGGTQLTVLGQPKAAPSVTLFPPSSEELQANKATLVCLISDFYPGAVTVAWKADSSPVKAGVETTTPSKQSNNKYAASSYLSLTPEQWKSHRSYSCQVTHEGSTVEKTVAPTECS
notes: Same variable domains as AbT; residue limits derived as for m29; also called VHPDM/VL9; copies: 2 + 2
binding result [1]: no binding

B3: 18A5 parent scFv (scFv)
scFv: QVQLQESGPGLVKTSETLSLTCAVSGYSISSGYYWGWIRQPPGKGLEWIGSISHTGNTYYNPPLKSRVTISVDTSKNQFSLKLSSVTAADTAVYYCARGGGISRPEYWGKGTLVTVSSGGGGSGGGGSGGGGSALSSELTQDPPVSVALGQTVTLTCQGDSLRTYYASWYQQKSGQAPILLLYGKHKRPSGIPDRFSGSTSGDTASLTITGAQAEDEADYYCNSRDSSGNPHVLFGGGTQLTVL
notes: scFv format of parental 18A5 (not germlined); different molecule from the 18A5 IgG coated on the plate; also called parental 18A5 scFv; scFv parental clone 18A5
binding result [2]: binds

B4: AbJ (antibody, IgG1, V domains shown)
VH: QVQLQESGPGLVKPSETLSLTCAVSGYSISSGYYWGWIRQPPGKGLEWIGSISHTGNTYYNPPLKSRVTISVDTSKNQFSLKLSSVTAADTAVYYCARFMGFGRPEYWGQGTLVTVSS
VL: SSELTQDPAVSVALGQTVRITCQGDSLRTYYASWYQQKPGQAPVLVIYGKHKRPSGIPDRFSGSSSGNTASLTITGAQAEDEADYYCNSRDSSGNPHVLFGGGTQLTVL
notes: As for AbA: IgG1/lambda, CDR3 graft, residue limits derived; also called VH3/VLP
EC50 (read off the curve) [3]: ~0.4 nM
EC50 (read off the curve) [4]: ~0.3 nM
binding result [5]: no binding (tested: 13 nM)
Human IL-21R-BaF3 Proliferation IC50 [6]: 0.65 nM
Human IL-21R-TF1 Proliferation IC50 [6]: 4.6 nM
Murine IL-21R-BaF3 Proliferation IC50 [7]: 0.4 nM
EC50 (read off the curve) [8]: ~0.3 nM
binding result (human IL-2Rβ): no binding (tested: 50 nM)
binding result (human soluble IL-4R): no binding (tested: 50 nM)
binding result (human IL-13-His/FLAG): no binding (tested: 50 nM)
A450 (13 nM Ab) [9]: 1.27 A450
A450 (13 nM Ab) [10]: 0.126 A450
A450 (13 nM Ab) [11]: 1.22 A450
A450 (13 nM Ab) [12]: 1.26 A450

B5: AbV (antibody, human IgG1, V domains shown)
VH: QVQLQESGPGLVKPSETLSLTCAVSGYSISSGYYWGWIRQPPGKGLEWIGSISHTGNTYYNPPLKSRVTISVDTSKNQFSLKLSSVTAADTAVYYCARFMGFGRPEYWGQGTLVTVSS
VL: SSELTQDPAVSVALGQTVRITCQGDSLRTYYASWYQQKPGQAPVLVIYGKHKRPSGIPDRFSGSSSGNTASLTITGAQAEDEADYYCVARSVVGNPHVLFGGGTQLTVL
IC50, rat T cell proliferation, experiment 1 [13]: 70.5 nM
IC50, rat T cell proliferation, experiment 2 [13]: 59.2 nM

B6: AbW (antibody, human IgG1, V domains shown)
VH: QVQLQESGPGLVKPSETLSLTCAVSGYSISSGYYWGWIRQPPGKGLEWIGSISHTGNTYYNPPLKSRVTISVDTSKNQFSLKLSSVTAADTAVYYCARFMGFGRPEYWGQGTLVTVSS
VL: SSELTQDPAVSVALGQTVRITCQGDSLRTYYASWYQQKPGQAPVLVIYGKHKRPSGIPDRFSGSSSGNTASLTITGAQAEDEADYYCVTRSVKGNPHVLFGGGTQLTVL
IC50, rat T cell proliferation, experiment 1 [13]: 159 nM
IC50, rat T cell proliferation, experiment 2 [13]: 94.7 nM
